Reference: patent publication US6709838 (Genentech, dated 2004)

Target: T1, human Ptch-2 (SEQ ID NO:2), overexpressed on transfected human 293 embryonic kidney cells (human, UniProt Q9Y6C5 1-1203)
T1 construct: also called Patched-2; patched-2
T1 sequence: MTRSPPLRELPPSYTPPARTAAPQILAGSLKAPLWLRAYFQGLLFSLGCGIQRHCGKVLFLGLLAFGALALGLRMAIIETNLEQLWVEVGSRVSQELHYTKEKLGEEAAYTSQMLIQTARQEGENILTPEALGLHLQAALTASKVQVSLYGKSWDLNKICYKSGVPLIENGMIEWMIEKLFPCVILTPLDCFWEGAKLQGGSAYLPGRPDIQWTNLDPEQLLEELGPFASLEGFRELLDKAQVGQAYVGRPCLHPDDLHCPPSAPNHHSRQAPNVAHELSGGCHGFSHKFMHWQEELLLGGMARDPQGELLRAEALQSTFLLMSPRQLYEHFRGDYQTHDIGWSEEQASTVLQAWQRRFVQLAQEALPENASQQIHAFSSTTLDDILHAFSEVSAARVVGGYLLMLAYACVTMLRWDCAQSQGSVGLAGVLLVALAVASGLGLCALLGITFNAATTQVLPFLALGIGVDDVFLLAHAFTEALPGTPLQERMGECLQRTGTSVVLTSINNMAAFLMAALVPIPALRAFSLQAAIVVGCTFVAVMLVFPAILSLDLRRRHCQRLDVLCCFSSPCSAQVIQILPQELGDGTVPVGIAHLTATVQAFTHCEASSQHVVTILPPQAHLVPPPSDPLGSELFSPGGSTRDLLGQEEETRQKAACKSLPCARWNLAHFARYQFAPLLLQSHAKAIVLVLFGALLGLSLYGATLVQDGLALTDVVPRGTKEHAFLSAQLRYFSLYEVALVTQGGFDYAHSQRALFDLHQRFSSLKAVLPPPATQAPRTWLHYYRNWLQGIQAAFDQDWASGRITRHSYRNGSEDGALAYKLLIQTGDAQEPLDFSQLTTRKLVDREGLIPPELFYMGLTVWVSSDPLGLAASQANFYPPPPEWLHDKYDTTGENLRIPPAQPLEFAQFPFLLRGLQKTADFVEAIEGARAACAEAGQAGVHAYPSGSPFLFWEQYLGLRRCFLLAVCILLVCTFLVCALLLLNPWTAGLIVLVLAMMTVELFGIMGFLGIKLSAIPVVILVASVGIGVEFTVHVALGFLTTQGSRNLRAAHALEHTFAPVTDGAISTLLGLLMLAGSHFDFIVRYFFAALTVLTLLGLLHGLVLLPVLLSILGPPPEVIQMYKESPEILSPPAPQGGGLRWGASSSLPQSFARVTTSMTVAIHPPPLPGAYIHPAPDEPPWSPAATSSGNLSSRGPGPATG
Test: Scatchard analysis of 125I-Shh displacement curves, 293 cells expressing Ptch-2

B1: Dhh (SEQ ID NO:13) (ligand)
chain: not shown
notes: also called Desert Hh; Desert hedgehog
- Kd: 600 pM

B2: Ihh (SEQ ID NO:29) (ligand)
chain: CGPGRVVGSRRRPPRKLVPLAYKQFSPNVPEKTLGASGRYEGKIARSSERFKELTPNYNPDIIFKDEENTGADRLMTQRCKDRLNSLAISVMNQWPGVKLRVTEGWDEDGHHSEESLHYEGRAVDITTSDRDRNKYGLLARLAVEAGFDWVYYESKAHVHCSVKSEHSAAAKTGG
notes: also called Indian Hh
- Kd: 400 pM
